These are literature values, as cited in PMC6021539.

In the series the target is Adrenomedullin (Homo sapiens) (UniProt P35318).

pKd: −log10 of the molar value.

For orientation: pKd means −log10 of the Kd, conventionally taken in molar units. CXCR7 (from UniProt P25106): the pKd was 6.72.
